From IntAct's records for PubMed 17235283

B1: Lymphocyte cytosolic protein 2 (Homo sapiens), Q13094 (parent)
chain: MALRNVPFRSEVLGWDPDSLADYFKKLNYKDCEKAVKKYHIDGARFLNLTENDIQKFPKLRVPILSKLSQEINKNEERRSIFTRKPQVPRFPEETESHEEDNGGWSSFEEDDYESPNDDQDGEDDGDYESPNEEEEAPVEDDADYEPPPSNDEEALQNSILPAKPFPNSNSMYIDRPPSGKTPQQPPVPPQRPMAALPPPPAGRNHSPLPPPQTNHEEPSRSRNHKTAKLPAPSIDRSTKPPLDRSLAPFDREPFTLGKKPPFSDKPSIPAGRSLGEHLPKIQKPPLPPTTERHERSSPLPGKKPPVPKHGWGPDRRENDEDDVHQRPLPQPALLPMSSNTFPSRSTKPSPMNPLPSSHMPGAFSESNSSFPQSASLPPYFSQGPSNRPPIRAEGRNFPLPLPNKPRPPSPAEEENSLNEEWYVSYITRPEAEAALRKINQDGTFLVRDSSKKTTTNPYVLMVLYKDKVYNIQIRYQKESQVYLLGTGLRGKEDFLSVSDIIDYFRKMPLLLIDGKNRGSRYQCTLTHAAGYP

Variants of: B1
Settings: with stam1_human STAM

effect of a mutation on the interaction	Variant
decreasing interaction	MALRNVPFRSEVLGWDPDSLADYFKKLNYKDCEKAVKKYHIDGARFLNLTENDIQKFPKLRVPILSKLSQEINKNEERRSIFTRKPQVPRFPEETESHEEDNGGWSSFEEDDYESPNDDQDGEDDGDYESPNEEEEAPVEDDADYEPPPSNDEEALQNSILPAKPFPNSNSMYIDRPPSGKTPQQPPVPPQRPMAALPPPPAGRNHSPLPPPQTNHEEPSRSRNHKTAKLPAPPIDRSTKPPLDRSLAPFDREPFTLGKKPPFSDKPSIPAGRSLGEHLPKIQKPPLPPTTERHERSSPLPGKKPPVPKHGWGPDRRENDEDDVHQRPLPQPALLPMSSNTFPSRSTKPSPMNPLPSSHMPGAFSESNSSFPQSASLPPYFSQGPSNRPPIRAEGRNFPLPLPNKPRPPSPAEEENSLNEEWYVSYITRPEAEAALRKINQDGTFLVRDSSKKTTTNPYVLMVLYKDKVYNIQIRYQKESQVYLLGTGLRGKEDFLSVSDIIDYFRKMPLLLIDGKNRGSRYQCTLTHAAGYP [S234P]

Variants of: B1
Settings: with stam2_human STAM2, O75886

effect of a mutation on the interaction	Variant
decreasing interaction	MALRNVPFRSEVLGWDPDSLADYFKKLNYKDCEKAVKKYHIDGARFLNLTENDIQKFPKLRVPILSKLSQEINKNEERRSIFTRKPQVPRFPEETESHEEDNGGWSSFEEDDYESPNDDQDGEDDGDYESPNEEEEAPVEDDADYEPPPSNDEEALQNSILPAKPFPNSNSMYIDRPPSGKTPQQPPVPPQRPMAALPPPPAGRNHSPLPPPQTNHEEPSRSRNHKTAKLPAPPIDRSTKPPLDRSLAPFDREPFTLGKKPPFSDKPSIPAGRSLGEHLPKIQKPPLPPTTERHERSSPLPGKKPPVPKHGWGPDRRENDEDDVHQRPLPQPALLPMSSNTFPSRSTKPSPMNPLPSSHMPGAFSESNSSFPQSASLPPYFSQGPSNRPPIRAEGRNFPLPLPNKPRPPSPAEEENSLNEEWYVSYITRPEAEAALRKINQDGTFLVRDSSKKTTTNPYVLMVLYKDKVYNIQIRYQKESQVYLLGTGLRGKEDFLSVSDIIDYFRKMPLLLIDGKNRGSRYQCTLTHAAGYP [S234P]

Variants of: B1
Settings: with grb2_human GRB2, P62993

effect of a mutation on the interaction	Variant
decreasing interaction	MALRNVPFRSEVLGWDPDSLADYFKKLNYKDCEKAVKKYHIDGARFLNLTENDIQKFPKLRVPILSKLSQEINKNEERRSIFTRKPQVPRFPEETESHEEDNGGWSSFEEDDYESPNDDQDGEDDGDYESPNEEEEAPVEDDADYEPPPSNDEEALQNSILPAKPFPNSNSMYIDRPPSGKTPQQPPVPPQRPMAALPPPPAGRNHSPLPPPQTNHEEPSRSRNHKTAKLPAPSIDRRTKPPLDRSLAPFDREPFTLGKKPPFSDKPSIPAGRSLGEHLPKIQKPPLPPTTERHERSSPLPGKKPPVPKHGWGPDRRENDEDDVHQRPLPQPALLPMSSNTFPSRSTKPSPMNPLPSSHMPGAFSESNSSFPQSASLPPYFSQGPSNRPPIRAEGRNFPLPLPNKPRPPSPAEEENSLNEEWYVSYITRPEAEAALRKINQDGTFLVRDSSKKTTTNPYVLMVLYKDKVYNIQIRYQKESQVYLLGTGLRGKEDFLSVSDIIDYFRKMPLLLIDGKNRGSRYQCTLTHAAGYP [S238R]

Variants of: B1
Settings: with stam1_human STAM
Remark: another data set of the same source

effect of a mutation on the interaction	Variant
decreasing interaction	MALRNVPFRSEVLGWDPDSLADYFKKLNYKDCEKAVKKYHIDGARFLNLTENDIQKFPKLRVPILSKLSQEINKNEERRSIFTRKPQVPRFPEETESHEEDNGGWSSFEEDDYESPNDDQDGEDDGDYESPNEEEEAPVEDDADYEPPPSNDEEALQNSILPAKPFPNSNSMYIDRPPSGKTPQQPPVPPQRPMAALPPPPAGRNHSPLPPPQTNHEEPSRSRNHKTAKLPAPSIDRRTKPPLDRSLAPFDREPFTLGKKPPFSDKPSIPAGRSLGEHLPKIQKPPLPPTTERHERSSPLPGKKPPVPKHGWGPDRRENDEDDVHQRPLPQPALLPMSSNTFPSRSTKPSPMNPLPSSHMPGAFSESNSSFPQSASLPPYFSQGPSNRPPIRAEGRNFPLPLPNKPRPPSPAEEENSLNEEWYVSYITRPEAEAALRKINQDGTFLVRDSSKKTTTNPYVLMVLYKDKVYNIQIRYQKESQVYLLGTGLRGKEDFLSVSDIIDYFRKMPLLLIDGKNRGSRYQCTLTHAAGYP [S238R]

Variants of: B1
Settings: with stam2_human STAM2, O75886
Remark: another data set of the same source

effect of a mutation on the interaction	Variant
decreasing interaction	MALRNVPFRSEVLGWDPDSLADYFKKLNYKDCEKAVKKYHIDGARFLNLTENDIQKFPKLRVPILSKLSQEINKNEERRSIFTRKPQVPRFPEETESHEEDNGGWSSFEEDDYESPNDDQDGEDDGDYESPNEEEEAPVEDDADYEPPPSNDEEALQNSILPAKPFPNSNSMYIDRPPSGKTPQQPPVPPQRPMAALPPPPAGRNHSPLPPPQTNHEEPSRSRNHKTAKLPAPSIDRRTKPPLDRSLAPFDREPFTLGKKPPFSDKPSIPAGRSLGEHLPKIQKPPLPPTTERHERSSPLPGKKPPVPKHGWGPDRRENDEDDVHQRPLPQPALLPMSSNTFPSRSTKPSPMNPLPSSHMPGAFSESNSSFPQSASLPPYFSQGPSNRPPIRAEGRNFPLPLPNKPRPPSPAEEENSLNEEWYVSYITRPEAEAALRKINQDGTFLVRDSSKKTTTNPYVLMVLYKDKVYNIQIRYQKESQVYLLGTGLRGKEDFLSVSDIIDYFRKMPLLLIDGKNRGSRYQCTLTHAAGYP [S238R]

Variants of: B1
Settings: with grb2_human GRB2, P62993
Remark: another data set of the same source

effect of a mutation on the interaction	Variant
disrupting interaction	MALRNVPFRSEVLGWDPDSLADYFKKLNYKDCEKAVKKYHIDGARFLNLTENDIQKFPKLRVPILSKLSQEINKNEERRSIFTRKPQVPRFPEETESHEEDNGGWSSFEEDDYESPNDDQDGEDDGDYESPNEEEEAPVEDDADYEPPPSNDEEALQNSILPAKPFPNSNSMYIDRPPSGKTPQQPPVPPQRPMAALPPPPAGRNHSPLPPPQTNHEEPSRSRNHKTAKLPAPSIDRSPKPPLDRSLAPFDREPFTLGKKPPFSDKPSIPAGRSLGEHLPKIQKPPLPPTTERHERSSPLPGKKPPVPKHGWGPDRRENDEDDVHQRPLPQPALLPMSSNTFPSRSTKPSPMNPLPSSHMPGAFSESNSSFPQSASLPPYFSQGPSNRPPIRAEGRNFPLPLPNKPRPPSPAEEENSLNEEWYVSYITRPEAEAALRKINQDGTFLVRDSSKKTTTNPYVLMVLYKDKVYNIQIRYQKESQVYLLGTGLRGKEDFLSVSDIIDYFRKMPLLLIDGKNRGSRYQCTLTHAAGYP [T239P]

Variants of: B1
Settings: with stam1_human STAM
Remark: another data set of the same source

effect of a mutation on the interaction	Variant
disrupting interaction	MALRNVPFRSEVLGWDPDSLADYFKKLNYKDCEKAVKKYHIDGARFLNLTENDIQKFPKLRVPILSKLSQEINKNEERRSIFTRKPQVPRFPEETESHEEDNGGWSSFEEDDYESPNDDQDGEDDGDYESPNEEEEAPVEDDADYEPPPSNDEEALQNSILPAKPFPNSNSMYIDRPPSGKTPQQPPVPPQRPMAALPPPPAGRNHSPLPPPQTNHEEPSRSRNHKTAKLPAPSIDRSPKPPLDRSLAPFDREPFTLGKKPPFSDKPSIPAGRSLGEHLPKIQKPPLPPTTERHERSSPLPGKKPPVPKHGWGPDRRENDEDDVHQRPLPQPALLPMSSNTFPSRSTKPSPMNPLPSSHMPGAFSESNSSFPQSASLPPYFSQGPSNRPPIRAEGRNFPLPLPNKPRPPSPAEEENSLNEEWYVSYITRPEAEAALRKINQDGTFLVRDSSKKTTTNPYVLMVLYKDKVYNIQIRYQKESQVYLLGTGLRGKEDFLSVSDIIDYFRKMPLLLIDGKNRGSRYQCTLTHAAGYP [T239P]

Variants of: B1
Settings: with stam2_human STAM2, O75886
Remark: another data set of the same source

effect of a mutation on the interaction	Variant
disrupting interaction	MALRNVPFRSEVLGWDPDSLADYFKKLNYKDCEKAVKKYHIDGARFLNLTENDIQKFPKLRVPILSKLSQEINKNEERRSIFTRKPQVPRFPEETESHEEDNGGWSSFEEDDYESPNDDQDGEDDGDYESPNEEEEAPVEDDADYEPPPSNDEEALQNSILPAKPFPNSNSMYIDRPPSGKTPQQPPVPPQRPMAALPPPPAGRNHSPLPPPQTNHEEPSRSRNHKTAKLPAPSIDRSPKPPLDRSLAPFDREPFTLGKKPPFSDKPSIPAGRSLGEHLPKIQKPPLPPTTERHERSSPLPGKKPPVPKHGWGPDRRENDEDDVHQRPLPQPALLPMSSNTFPSRSTKPSPMNPLPSSHMPGAFSESNSSFPQSASLPPYFSQGPSNRPPIRAEGRNFPLPLPNKPRPPSPAEEENSLNEEWYVSYITRPEAEAALRKINQDGTFLVRDSSKKTTTNPYVLMVLYKDKVYNIQIRYQKESQVYLLGTGLRGKEDFLSVSDIIDYFRKMPLLLIDGKNRGSRYQCTLTHAAGYP [T239P]
